Reference: article PMC2734569, “Functional mapping of the fission yeast DNA polymerase δ B-subunit Cdc1 by site-directed and random pentapeptide insertion mutagenesis” (BMC Molecular Biology, 2009)
Numbering of substitutions follows the chain as printed.

How the values were obtained:
Assay in all cases: two-hybrid; LexA-Cdc1 bait (pBTM116 or pBTM116BN) with Gal4-Pol3 prey and co-expressed c-myc-tagged Cdc27 (pAA-Cdc27) in S. cerevisiae CTY10-5d; ONPG liquid culture beta-galactosidase assay, mean of triplicates, as percent of wild-type Cdc1
Conditions in all cases: partners not purified
Cdc1-A6 = target: T1, Cdc1-A6 (Schizosaccharomyces pombe, UniProt P87324 1-462, Pro329Ala)
T1 construct: Cdc1, S. pombe, point mutant; source: yeast two-hybrid fusion, in S. cerevisiae CTY10-5d
T1 sequence (looked up): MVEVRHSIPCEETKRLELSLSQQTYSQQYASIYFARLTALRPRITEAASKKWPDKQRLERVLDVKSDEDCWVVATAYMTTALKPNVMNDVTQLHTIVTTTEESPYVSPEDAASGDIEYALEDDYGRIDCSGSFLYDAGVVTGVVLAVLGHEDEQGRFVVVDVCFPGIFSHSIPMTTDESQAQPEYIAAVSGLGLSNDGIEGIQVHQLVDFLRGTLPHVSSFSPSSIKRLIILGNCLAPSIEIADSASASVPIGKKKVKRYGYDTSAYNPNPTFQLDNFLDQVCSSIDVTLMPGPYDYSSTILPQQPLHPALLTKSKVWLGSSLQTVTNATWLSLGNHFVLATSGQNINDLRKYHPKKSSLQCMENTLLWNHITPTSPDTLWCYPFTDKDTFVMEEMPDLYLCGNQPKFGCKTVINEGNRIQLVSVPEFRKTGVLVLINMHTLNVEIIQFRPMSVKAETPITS

Cdc1-A8 = target: T2, Cdc1-A8 (Schizosaccharomyces pombe, UniProt P87324 1-462, Pro374Ala)
T2 construct: Cdc1, S. pombe, point mutant; source: yeast two-hybrid fusion, in S. cerevisiae CTY10-5d
T2 sequence (looked up): T1 sequence (looked up) with A329P, P374A

Cdc1-J8 = target: T3, Cdc1-J8 (Schizosaccharomyces pombe, UniProt P87324 1-462, Lys-GlyValProLeuLys-Pro)
T3 construct: Cdc1, S. pombe, with a pentapeptide inserted after residue 83; also called J19; source: yeast two-hybrid fusion, in S. cerevisiae CTY10-5d
T3 sequence (looked up): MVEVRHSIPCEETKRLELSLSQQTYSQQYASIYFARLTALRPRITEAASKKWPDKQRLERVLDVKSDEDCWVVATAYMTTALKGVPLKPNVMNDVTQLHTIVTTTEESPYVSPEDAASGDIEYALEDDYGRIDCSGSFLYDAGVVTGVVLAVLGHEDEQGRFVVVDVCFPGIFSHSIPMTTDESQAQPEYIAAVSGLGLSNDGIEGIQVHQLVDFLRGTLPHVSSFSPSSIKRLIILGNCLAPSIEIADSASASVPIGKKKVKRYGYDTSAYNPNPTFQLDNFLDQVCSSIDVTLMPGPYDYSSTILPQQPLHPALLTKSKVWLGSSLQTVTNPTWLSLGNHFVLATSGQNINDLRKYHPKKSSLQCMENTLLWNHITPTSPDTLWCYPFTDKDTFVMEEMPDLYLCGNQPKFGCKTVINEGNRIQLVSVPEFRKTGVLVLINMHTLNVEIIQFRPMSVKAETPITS

Cdc1-J21 = target: T4, Cdc1-J21 (Schizosaccharomyces pombe, UniProt P87324 1-462, Leu-GlyValProGlnLeu-Asp)
T4 construct: Cdc1, S. pombe, with a pentapeptide inserted after residue 275; source: yeast two-hybrid fusion, in S. cerevisiae CTY10-5d
T4 sequence (looked up): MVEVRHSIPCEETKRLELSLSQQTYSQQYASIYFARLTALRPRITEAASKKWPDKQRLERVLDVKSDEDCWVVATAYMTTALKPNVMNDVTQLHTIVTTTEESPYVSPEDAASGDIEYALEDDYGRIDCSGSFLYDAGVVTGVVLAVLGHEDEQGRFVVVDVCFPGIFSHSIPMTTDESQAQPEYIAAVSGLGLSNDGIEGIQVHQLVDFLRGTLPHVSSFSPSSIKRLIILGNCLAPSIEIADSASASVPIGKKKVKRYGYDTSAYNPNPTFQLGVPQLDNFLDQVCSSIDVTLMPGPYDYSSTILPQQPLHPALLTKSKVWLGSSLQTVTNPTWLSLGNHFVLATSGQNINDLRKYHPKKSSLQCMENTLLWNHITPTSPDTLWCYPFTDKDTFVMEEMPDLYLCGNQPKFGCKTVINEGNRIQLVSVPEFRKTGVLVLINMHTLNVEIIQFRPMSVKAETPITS

B1: Pol3 (fission yeast DNA polymerase delta catalytic subunit) (natural protein, Schizosaccharomyces pombe, UniProt P30316 1-1086, looked up)
chain: MTDRSSNEGVVLNKENYPFPRRNGSIHGEITDVKRRRLSERNGYGDKKGSSSKEKTSSFEDELAEYASQLDQDEIKSSKDQQWQRPALPAINPEKDDIYFQQIDSEEFTEGSVPSIRLFGVTDNGNSILVHVVGFLPYFYVKAPVGFRPEMLERFTQDLDATCNGGVIDHCIIEMKENLYGFQGNEKSPFIKIFTTNPRILSRARNVFERGEFNFEELFPVGVGVTTFESNTQYLLRFMIDCDVVGMNWIHLPASKYQFRYQNRVSNCQIEAWINYKDLISLPAEGQWSKMAPLRIMSFDIECAGRKGVFPDPSIDPVIQIASIVTQYGDSTPFVRNVFCVDTCSQIVGTQVYEFQNQAEMLSSWSKFVRDVDPDVLIGYNICNFDIPYLLDRAKSLRIHNFPLLGRIHNFFSVAKETTFSSKAYGTRESKTTSIPGRLQLDMLQVMQRDFKLRSYSLNAVCSQFLGEQKEDVHYSIITDLQNGTADSRRRLAIYCLKDAYLPQRLMDKLMCFVNYTEMARVTGVPFNFLLARGQQIKVISQLFRKALQHDLVVPNIRVNGTDEQYEGATVIEPIKGYYDTPIATLDFSSLYPSIMQAHNLCYTTLLDSNTAELLKLKQDVDYSVTPNGDYFVKPHVRKGLLPIILADLLNARKKAKADLKKETDPFKKAVLDGRQLALKVSANSVYGFTGATNGRLPCLAISSSVTSYGRQMIEKTKDVVEKRYRIENGYSHDAVVIYGDTDSVMVKFGVKTLPEAMKLGEEAANYVSDQFPNPIKLEFEKVYFPYLLISKKRYAGLFWTRTDTYDKMDSKGIETVRRDNCPLVSYVIDTALRKMLIDQDVEGAQLFTKKVISDLLQNKIDMSQLVITKALSKTDYAAKMAHVELAERMRKRDAGSAPAIGDRVAYVIIKGAQGDQFYMRSEDPIYVLENNIPIDAKYYLENQLSKPLLRIFEPILGEKASSLLHGDHTRTISMAAPSVGGIMKFAVKVETCLGCKAPIKKGKTALCENCLNRSAELYQRQVAQVNDLEVRFARLWTQCQRCQGSMHQDVICTSRDCPIFYMRIAEHKKLQQSVDLLKRFDEMSW
notes: DNA polymerase delta catalytic subunit Pol3, S. pombe; prey plasmid named pACT-Pol3 in the results and pGAD2F-Pol3 in the methods; also called Gal4-Pol3; pACT-Pol3; source: yeast two-hybrid fusion, in S. cerevisiae CTY10-5d
For B1, the “two-hybrid beta-galactosidase activity, % of wild-type Cdc1” value (Cdc1-A6) was under 1%, the “two-hybrid beta-galactosidase activity, % of wild-type Cdc1” value (Cdc1-A8) was 17% and the “two-hybrid beta-galactosidase activity, % of wild-type Cdc1” value (Cdc1-J8) was under 1%. For the same binder, the “two-hybrid beta-galactosidase activity, % of wild-type Cdc1” value (Cdc1-J21) was under 1%.
